Measured values: paper PMC8599806

Molecular target: RECQL (UniProt P46063)
Assay: ID3 co-IP, Western blot
Details: reference: wild type ID3; sites S65

## ID3 (from UniProt Q02535) S65A
  binding against the reference: lost
